Laboratory results published in patent US10138280B2, “Polypeptides targeting glycosylated MUC2 proteins, methods of synthesis, their nucleic acids and uses thereof” (INSTITUT PASTEUR, priority 2011, dated 2018).

How the values were obtained:
[1] = system: human neutrophil (PMN) granules; test: Human neutrophil (PMN) granule staining; format: cell-based
Procedure: FIG. 14. Staining of individual neutrophiles (white blood cells) in human blood sample. Cy5-MUB70 was incubated on ethanol 100% fixed blood sample. […] (Details are provided on the Figure). […] In particular, granules staining is achieved.
FIG. 15. Staining of individual neutrophiles (white blood cells) purified from fresh human blood sample. Cy5-MUB70 was incubated on PFA 4% fixed neutrophiles (PFA treatment for 15 min, wash 3 times in PBS). Signal was detected as dots distributed in neutrophile cytoplasms. (Staining with Dapi 1:1000 and EB1C5 1:1000 in PBS+10% FCS+0.1% Saponin). […] In particular, granules staining is achieved.
FIG. 29. Identification of Muc2 in neutrophile granules using MUB70-Cy5. Human neutrophil (PMN) granule staining using Cy5-MUB70. PMN were purified from healthy donor blood samples and fixed in the presence of 4% PFA. Fluorescent staining of human colonic mucus was performed by the addition of 1 μg/mL of Cy5-MUB70 (Red) with Dapi (1:100) (Blue) and 1:200 anti-Muc2 antibody (Green). Image acquisition was performed using a fluorescent confocal microscope (see Methods).
FIG. 31. Identification of Muc2 in neutrophile granules. Human neutrophil (PMN) granule staining using Cy5-MUB40-1, Cy5-MUB40-2, Cy5-MUB40-3, Cy5-MUB40-4 peptides. Schematic description of the Cy5-conjugated peptides. PMN were purified from healthy donor blood samples and fixed in the presence of 4% PFA. Fluorescent staining of human colonic mucus was performed by the addition of 1 μg/mL of the Cy5-conjugated peptides (Green) with Dapi (1:100) (Blue) and Phalloidin-RRX (1:1000) (Red). Image acquisition was performed using a fluorescent confocal microscope (see Methods).
The invention has also proven to be useful for the monitoring of neutrophile degranulation events, in particular by using MUB70 and/or MUB40 polypeptides or polypeptides sharing identity with MUB70 and/or MUB40 polypeptides, or fragments thereof, for labelling neutrophile granule(s).

HT-29 MTX cells = test: Cell toxicity, Sytox Green assay; format: cell-based, human; conditions: differentiated HT-29 MTX; 1 μg/mL, up to 10 h, serum starved media; Student test NS, p>0.05, n=3
Procedure: (§1) FIGS. 8A-8D. (FIG. 8A) Cell toxicity of Cy5-MUB70 tested on HT-29-MTX and Hela epithelial cells. Cell survival was assessed using Sytoxgreen dye on cultures exposed to 1 μg/mL Cy5-MUB70 from 0 to 10 h, as indicated. NS indicates P>0.05 (Student's T-test). (FIG. 8B) Rabbit colonic and ileal mucus staining on fixed tissues (PFA 4%), using Cy5-MUB70 (1 μg/mL) (blue). Actin is stained in red (Phall.-RRX). Bar is 50 μm. (FIG. 8C) Human ex vivo colon sample was incubated for 2 h with 1 μg/mL Cy5-MUB70 in a serum-free media. Resulting fluorescent staining was assessed using a two-photons microscope (see Methods). Z-projection, performed using ImageJ software, allows 3D localization of Cy5-MUB70 fluorescence signal. […] Human tissue autofluorescence is detected in the same red channel as Cy5.
(§2) Hela cells were grown in DMEM medium supplemental with 10% FCS. […] Cell viability was determined by staining with Sytox Green (Invitrogen) as described by the manufacturer. […] Fluorescence was measured using a FACS flow cytometer (BD systems) recording at least 10,000 events. Data were analysed with CellQuest Pro software (BD Biosciences), and expressed as percentage survival.
(§3) As Cy5-MUB70 was envisaged to be used on living cells and organs, its cell-toxicity has been evaluated. This probe was incubated on differentiated HT-29 MTX and on Hela cells as cell viability was assessed using a Sytox Green assay (see Methods).

Hela cells = test: Cell toxicity, Sytox Green assay; format: cell-based, human; conditions: 1 μg/mL, up to 10 h, serum starved media, Student test NS, p>0.05, n=3
Procedure: as §1, §2, §3

rabbit colonic mucus = test: Mucus staining on fixed tissues, rabbit colon
Procedure: as §1, with “signal. Bar is 100 μm. Colon scheme: firmly (f) and loosely (I) attached colonic mucus layers are represented at the surface of the epithelium (e). (FIG. 8D) Kinetics of colonic mucus with Cy5-MUB70.” for “signal.”
FIGS. 9A-9B. (FIG. 9A) Co-localization of Muc2 (green) and Cy5-MUB (blue) performed by immunofluorescent detection on human mucus extract collected on ex vivo tissues using an epifluorescent microscope. Bar is 50 μm. (FIG. 9B) Co-localization of Muc2 (green) and Cy5-MUB (blue) observed on fixed (PFA 4%) rabbit colon samples. Actin is stained in red (Phall.RRX). Observations are performed using a confocal microscope. […]

B1: Cy5-MUB70: Cy5-labelled MUB70 polypeptide, labelled via Cy5 maleimide on N-terminal cysteine (conjugate)
peptide: CVHVQYIDGETDQMLRQDDLDGYTDETIPYSTAEGIKKFEGDGYELFKDNFPAGEKFDNDDTNDQFYTVIF
For B1, the PMN granule staining ([1]; PMN purified from human blood, fixed in 4% PFA, 1 μg/mL) was “binding specifically a neutrophile granule component”, the “neutrophile staining in human blood sample” value ([1]; ethanol 100% fixed blood sample) was “Signal was detected as diffused in neutrophile cytoplasm” and the cell viability (HT-29 MTX cells) was “do not affect significantly cell viability”. The cell viability (Hela cells) was “do not affect significantly cell viability”, the “colocalization with Muc2” value (rabbit colonic mucus; fixed rabbit colon samples) was “colocalization detection of Muc2 and Cy5-MUB70” and the colonic mucus staining (rabbit colonic mucus; rabbit colon, fixed tissue, 1 μg/mL) was “confirmed”.
